Results as given in patent US20240287172A1 (SCIRHOM, published 2024).

Target: T1, hiR2-FL-G563D-T7 (human, UniProt Q6PJF5 1-856)
T1 sequence: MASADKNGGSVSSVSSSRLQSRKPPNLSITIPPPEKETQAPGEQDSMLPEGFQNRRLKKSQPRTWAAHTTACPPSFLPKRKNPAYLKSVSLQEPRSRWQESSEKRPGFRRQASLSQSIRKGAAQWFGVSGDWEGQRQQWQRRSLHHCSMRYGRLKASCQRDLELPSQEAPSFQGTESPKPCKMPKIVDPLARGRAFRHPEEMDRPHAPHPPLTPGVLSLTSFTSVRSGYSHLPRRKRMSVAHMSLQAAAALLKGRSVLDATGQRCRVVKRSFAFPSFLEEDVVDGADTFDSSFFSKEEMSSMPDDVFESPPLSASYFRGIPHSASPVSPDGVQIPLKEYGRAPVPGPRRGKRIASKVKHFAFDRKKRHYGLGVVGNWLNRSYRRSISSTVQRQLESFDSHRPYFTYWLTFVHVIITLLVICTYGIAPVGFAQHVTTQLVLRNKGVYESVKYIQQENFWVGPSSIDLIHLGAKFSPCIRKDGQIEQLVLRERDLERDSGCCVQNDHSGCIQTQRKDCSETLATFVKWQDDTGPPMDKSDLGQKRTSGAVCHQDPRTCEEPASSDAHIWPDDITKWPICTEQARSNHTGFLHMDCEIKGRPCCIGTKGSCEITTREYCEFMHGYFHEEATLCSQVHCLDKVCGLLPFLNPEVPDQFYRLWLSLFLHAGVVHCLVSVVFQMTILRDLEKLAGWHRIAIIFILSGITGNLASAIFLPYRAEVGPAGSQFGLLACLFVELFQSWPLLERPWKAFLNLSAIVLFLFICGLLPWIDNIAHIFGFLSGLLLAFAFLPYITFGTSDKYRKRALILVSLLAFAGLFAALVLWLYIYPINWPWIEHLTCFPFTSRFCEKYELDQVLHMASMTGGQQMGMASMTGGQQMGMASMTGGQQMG
Assay: FACS, MEF-DKO cells, 3 µg/ml
Outline: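 Binding read by flow cytometry after a PE goat anti-mouse IgG F(ab′)2 secondary (1:100, on ice, 1 h, dark). Before that, immortalized MEF-DKO lines carrying single-mutant hiR2-FL-T7 constructs were incubated 1 h on ice with 3 μg/ml antibody or FACS buffer alone.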

B1: antibody 50 (antibody, V domains shown)
VH: QVQLQQSGAELVRPGASVKVSCKASGYAFSNYLIEWVKQRPGQGLEWIGVINPGSGFTKYNEKFKGKATLTADKSSSTAYMQLSSLTSEDSAVYFCARGLYRAMDYWGQGTSVTVSS
VL: DIQMTQSPASQSASLGESVTITCLASQTIGTWLAWYQQKPGKSPQLLIYAAASLADGVPSRFSGGGSGTKFSFKISSLQAEDFVNYYCQQIYSTPYTFGGGTKLEIK
notes: mouse IgG, kappa light chain; also called clone #50; purified antibody 50
loss of binding vs wild type: ≥ 30%
